Test results taken from the supplement of paper PMC10567573.

B1: LRRC45 (parent)
chain: FQTRQEMTSMSAELKMRAIQAEER

Variants of: B1
Experiment: protein stability index of a GFP-peptide fusion (GPS, HEK-293T) (PSI 1-6); higher = more stable
Conditions: c terminus: a fixed tail appended
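Note: lentivirally expressed fusions sorted by FACS into six bins by GFP to DsRed ratio, PSI derived from sequencing read proportions per bin multiplied by bin number.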

| Variant | protein stability index |
| --- | --- |
| FQTRQECTSMSAELKMRAIQAEER [M7C] | 3.6 |
| FQTRQEFTSMSAELKMRAIQAEER [M7F] | 3 |
| FQTRQEHTSMSAELKMRAIQAEER [M7H] | 4.28 |
| FQTRQERTSMSAELKMRAIQAEER [M7R] | 4.26 |
| FQTRQEQTSMSAELKMRAIQAEER [M7Q] | 4.14 |
| FQTRQENTSMSAELKMRAIQAEER [M7N] | 3.71 |
| FQTRQEWTSMSAELKMRAIQAEER [M7W] | 2.68 |
| FQTRQEMTPMSAELKMRAIQAEER [S9P] | 4.01 |
| FQTRQEMTIMSAELKMRAIQAEER [S9I] | 3.58 |
| FQTRQEMTTMSAELKMRAIQAEER [S9T] | 3.96 |
| FQTRQEMTVMSAELKMRAIQAEER [S9V] | 3.51 |
| FQTRQEMTDMSAELKMRAIQAEER [S9D] | 4.05 |
| FQTRQEMTWMSAELKMRAIQAEER [S9W] | 2.32 |
| FQTRQEMTHMSAELKMRAIQAEER [S9H] | 3.84 |
| FQTRQEMTGMSAELKMRAIQAEER [S9G] | 4.11 |
| FQTRQEMTSMSAELKMRAIQARER [E22R] | 3.18 |
| FQTRQEMTSMSAELKMRAIQADER [E22D] | 3.64 |
| FQTRQEMTSMSAELKMRAIQAWER [E22W] | 2.56 |
| FQTRQEMTSMSAELKMRAIQAVER [E22V] | 3.18 |
| FQTRQEMTSMSAELKMRAIQAHER [E22H] | 2.92 |
| FQTRQEMTSMSAEEKMRAIQAEER [L14E] | 3.99 |
| FQTRQEMTSMSAEDKMRAIQAEER [L14D] | 3.89 |
| FQTRQEMTSMSAECKMRAIQAEER [L14C] | 3.72 |
| FQTRQEMTSMSAETKMRAIQAEER [L14T] | 4.38 |
| FQTRQEMTSMSAELKMRWIQAEER [A18W] | 3.54 |

| Variant | protein stability index |
| --- | --- |
| FQTRQEMTSMSAELKMRIIQAEER [A18I] | 3.75 |
| FQTRQEMTSMSAELIMRAIQAEER [K15I] | 3.27 |
| FQTRQEMTSMSAELWMRAIQAEER [K15W] | 2.88 |
| FQTRQEMTSMSAELAMRAIQAEER [K15A] | 4.16 |
| FQTRQEMTSMSAELPMRAIQAEER [K15P] | 4.38 |
| FQTRQEMTSMSAELLMRAIQAEER [K15L] | 3.05 |
| FQTRQEMTSMSAELGMRAIQAEER [K15G] | 4.2 |
| FQTRQEMTSMSAELRMRAIQAEER [K15R] | 4.38 |
| FQTRQEMTSMSAELVMRAIQAEER [K15V] | 3.29 |
| FQTRQEMTSMSCELKMRAIQAEER [A12C] | 3.71 |
| FQTRQEMTSMSMELKMRAIQAEER [A12M] | 3.72 |
| FQTRQEMTSMSVELKMRAIQAEER [A12V] | 3.47 |
| FQTRQEMTSMSHELKMRAIQAEER [A12H] | 4.12 |
| FQTRQEMTSMSAELKLRAIQAEER [M16L] | 4.24 |
| FQTRQEMTSMSAELKDRAIQAEER [M16D] | 4.38 |
| FQTRTEMTSMSAELKMRAIQAEER [Q5T] | 3.65 |
| FQTRIEMTSMSAELKMRAIQAEER [Q5I] | 3.11 |
| FQTRLEMTSMSAELKMRAIQAEER [Q5L] | 3.77 |
| FQTRPEMTSMSAELKMRAIQAEER [Q5P] | 3.99 |
| FQTRHEMTSMSAELKMRAIQAEER [Q5H] | 3.54 |
| FQTRYEMTSMSAELKMRAIQAEER [Q5Y] | 1.79 |
| FQTAQEMTSMSAELKMRAIQAEER [R4A] | 4.09 |
| FQTDQEMTSMSAELKMRAIQAEER [R4D] | 4.99 |
| FQTCQEMTSMSAELKMRAIQAEER [R4C] | 4.63 |
| FQTYQEMTSMSAELKMRAIQAEER [R4Y] | 3.88 |

| Variant | protein stability index |
| --- | --- |
| FQTNQEMTSMSAELKMRAIQAEER [R4N] | 4.35 |
| FQTRQEMTSMSAMLKMRAIQAEER [E13M] | 3.47 |
| FQTRQEMTSMSAKLKMRAIQAEER [E13K] | 3.61 |
| FQTRQEMTSMSAGLKMRAIQAEER [E13G] | 3.6 |
| FQTRQEMTSMSAWLKMRAIQAEER [E13W] | 2.97 |
| FQTRQEMTSMSACLKMRAIQAEER [E13C] | 3.74 |
| FQTRQEMTSMSAALKMRAIQAEER [E13A] | 3.62 |
| FQTRQEMTSMSAELKMRAIYAEER [Q20Y] | 3.08 |
| FQTRQEMTSMSAELKMRAIDAEER [Q20D] | 3.99 |
| FQTRQEMTSMSAELKMRAIIAEER [Q20I] | 2.8 |
| FQTRQEMTSMSAELKMRAIFAEER [Q20F] | 2.26 |
| FQTRQEMTSMSAELKMRAITAEER [Q20T] | 3.9 |
| FQTRQEMTSMSAELKMRAIWAEER [Q20W] | 2.74 |
| FQTRQEMTSMSAELKMRAIAAEER [Q20A] | 4.3 |
| FQTRQEMTSMSAELKMRAIMAEER [Q20M] | 3.52 |
| FQTRQEMTSMSAELKMRARQAEER [I19R] | 4.19 |
| FQTRQEMTSMSAELKMRAKQAEER [I19K] | 4.68 |
| FQTRQEMTSMSAELKMRACQAEER [I19C] | 3.96 |
| FQTRQEMTSMSAELKMRAVQAEER [I19V] | 4.28 |
| FQTRQEMTSMSAELKMRAQQAEER [I19Q] | 4.09 |
| FQTRQEMTSMSAELKMRALQAEER [I19L] | 4.08 |
| FQTRQQMTSMSAELKMRAIQAEER [E6Q] | 3.44 |
| FQTRQTMTSMSAELKMRAIQAEER [E6T] | 3.88 |
| KQTRQEMTSMSAELKMRAIQAEER [F1K] | 5.1 |
| IQTRQEMTSMSAELKMRAIQAEER [F1I] | 4.27 |

| Variant | protein stability index |
| --- | --- |
| NQTRQEMTSMSAELKMRAIQAEER [F1N] | 5.13 |
| HQTRQEMTSMSAELKMRAIQAEER [F1H] | 4.85 |
| FQFRQEMTSMSAELKMRAIQAEER [T3F] | 3.95 |
| FQLRQEMTSMSAELKMRAIQAEER [T3L] | 3.76 |
| FQGRQEMTSMSAELKMRAIQAEER [T3G] | 3.72 |
| FQIRQEMTSMSAELKMRAIQAEER [T3I] | 3.86 |
| FQVRQEMTSMSAELKMRAIQAEER [T3V] | 3.43 |
| FQYRQEMTSMSAELKMRAIQAEER [T3Y] | 3.22 |
| FQTRQEMTSMSAELKMRAIQQEER [A21Q] | 3.79 |
| FQTRQEMTSMSAELKMRAIQNEER [A21N] | 4.15 |
| FQTRQEMTSMSAELKMRAIQFEER [A21F] | 3.89 |
| FQTRQEMTSMSAELKMRAIQLEER [A21L] | 4 |
| FQTRQEMTSMSAELKMRAIQMEER [A21M] | 3.57 |
| FQTRQEMDSMSAELKMRAIQAEER [T8D] | 4.16 |
| FQTRQEMESMSAELKMRAIQAEER [T8E] | 4.57 |
| FQTRQEMQSMSAELKMRAIQAEER [T8Q] | 4.28 |
| FQTRQEMASMSAELKMRAIQAEER [T8A] | 3.85 |
| FATRQEMTSMSAELKMRAIQAEER [Q2A] | 3.67 |
| FSTRQEMTSMSAELKMRAIQAEER [Q2S] | 4.85 |
| FGTRQEMTSMSAELKMRAIQAEER [Q2G] | 4.85 |
| FYTRQEMTSMSAELKMRAIQAEER [Q2Y] | 3.78 |
| FHTRQEMTSMSAELKMRAIQAEER [Q2H] | 2.27 |
| FQTRQEMTSESAELKMRAIQAEER [M10E] | 3.51 |
| FQTRQEMTSKSAELKMRAIQAEER [M10K] | 4.07 |
| FQTRQEMTSTSAELKMRAIQAEER [M10T] | 4.28 |

| Variant | protein stability index |
| --- | --- |
| FQTRQEMTSQSAELKMRAIQAEER [M10Q] | 4.21 |
| FQTRQEMTSMSAELKMRAIQAENR [E23N] | 3.32 |
| FQTRQEMTSMSAELKMRAIQAEPR [E23P] | 3.81 |
| FQTRQEMTSMSAELKMRAIQAEMR [E23M] | 3.16 |
| FQTRQEMTSMSAELKMRAIQAEFR [E23F] | 2.99 |
| FQTRQEMTSMSAELKMRAIQAEDR [E23D] | 3.33 |
| FQTRQEMTSMSAELKMRAIQAEKR [E23K] | 3.53 |
| FQTRQEMTSMSAELKMRAIQAEAR [E23A] | 3.16 |
| FQTRQEMTSMSAELKMVAIQAEER [R17V] | 3.75 |
| FQTRQEMTSMSAELKMGAIQAEER [R17G] | 3.82 |
| FQTRQEMTSMSAELKMQAIQAEER [R17Q] | 3.89 |
| FQTRQEMTSMSAELKMHAIQAEER [R17H] | 4.09 |
| FQTRQEMTSMMAELKMRAIQAEER [S11M] | 3.68 |
| FQTRQEMTSMLAELKMRAIQAEER [S11L] | 3.85 |
| FQTRQEMTSMFAELKMRAIQAEER [S11F] | 4.22 |
| FQTRQEMTSMCAELKMRAIQAEER [S11C] | 3.63 |
| FQTRQEMTSMVAELKMRAIQAEER [S11V] | 3.74 |
| FQTRQEMTSMHAELKMRAIQAEER [S11H] | 4.43 |
| FQTRQEMTSMDAELKMRAIQAEER [S11D] | 4.54 |
| FQTRQEMTSMSAELKMRAIQAEEY [R24Y] | 3.71 |
| FQTRQEMTSMSAELKMRAIQAEEC [R24C] | 3.4 |
| FQTRQEMTSMSAELKMRAIQAEEM [R24M] | 3.54 |
| FQTRQEMTSMSAELKMRAIQAEEK [R24K] | 4.26 |
| FQTRQEMTSMSAELKMRAIQAEEP [R24P] | 3.88 |
| FQTRQEMTSMSAELKMRAIQAEEQ [R24Q] | 4.5 |
